According to patent publication US10967068B2, “Stability-modulating linkers for use with antibody drug conjugates” (priority 2014, dated 2021):
*1 amine or outer side, *2 acyl side, *3 side chain or, on linkers, in order; H or OH if unused. Where a SMILES comes first, the peptide text is derived from it. [ ]: non-standard residue; d: D form. The star is where a group is joined. Dolaproine = CO[C@@H]([C@@H]1CCCN1)[C@@H](C)C(=O)O; Acetyl(2-(4-imidazolyl)) = O=C(Cc1c[nH]cn1)*; Dil = CC[C@H](C)[C@H](NC)[C@@H](CC(=O)O)OC; Imidazole4carbonyl = O=C(c1cnc[nH]1)*; PABC = O=C(OCc1ccc(N[*:1])cc1)[*:2]; Doe = c1ccc(C[C@H](N*)c2nccs2)cc1; Cit = NC(=O)NCCC[C@H](N)C(=O)O; Isobutyryl = CC(C)C(=O)*; PhAc = O=C(Cc1ccccc1)*; Me2Gly = CN(C)CC(=O)*; Aib = CC(C)(N)C(=O)O; CO = O=C([*:1])[*:2]; Piv = CC(C)(C)C(=O)*; Glycolyl = O=C(CO)*; Sar = CNCC(=O)O

Test: In Vitro Stability Assay—Mouse Plasma
Format: in vitro ADME
Conditions: for Conjugate stability (%): % DAR remaining after plasma 3 or 4.5 days; for DAR: before plasma incubation
Procedure: 100-200 ug of ADC were incubated in mouse plasma (provided by Bioreclamation) supplemented with 1×PBS to the final ADC concentration of 0.125 mg/mL. Following incubation for 3-7 days, samples were diluted with an equal volume of 1×PBS, and ADCs were isolated using Trop2 antigen coupled to CNBr-activated Sepharose (GE Healthcare) using standard protocols. Drug-antibody ratios were assessed before and after in vitro exposure using HIC methods and mass spectrometry.
DAR values for conjugates purified after plasma incubation were compared to DAR values prior to plasma treatment.

| Structure (SMILES) | DAR after plasma incubation for 3 to 4.5 days (attachment position L11B) | Conjugate stability (%) (attachment position L11B) | DAR (attachment position L11B) | DAR after plasma incubation for 3 to 4.5 days (attachment position H16) | Conjugate stability (%) (attachment position H16) | DAR (attachment position H16) |
| --- | --- | --- | --- | --- | --- | --- |
| CC[C@H](C)[C@@H]([C@@H](CC(=O)N1CCC[C@H]1[C@H](OC)[C@@H](C)C(=O)N[C@@H](Cc1ccccc1)c1nccs1)OC)N(C)C(=O)[C@@H](NC(=O)C(C)(C)NC(=O)OCc1ccc(NC(=O)[C@H](CCCNC(N)=O)NC(=O)[C@@H](NC(=O)[C@H](CCCCN)NC(=O)C(C)(C)C)C(C)C)cc1)C(C)C [Example 2, N˜2˜-(2,2-Dimethylpropanoyl)-L-lysyl-L-valyl-N-{4-[(8S,11S,12R)-11-[(2S)-butan-2-yl]-12-(2-{(2S)-2-[(1R,2R)-1-methoxy-2-methyl-3-oxo-3-{[(1S)-2-phenyl-1-(1,3-thiazol-2-yl)ethyl]amino}propyl]pyrrolidin-1-yl}-2-oxoethyl)-5,5,10-trimethyl-3,6,9-trioxo-8-(propan-2-yl)-2,13-dioxa-4,7,10-triazatetradec-1-yl]phenyl}-N˜5˜-carbamoyl-L-ornithinamide] (Piv-KV[Cit][PABC][Aib]V[Dil][Dolaproine]-Doe) | 0 | 0 | 1.54 |  |  |  |
| CC[C@H](C)[C@@H]([C@@H](CC(=O)N1CCC[C@H]1[C@H](OC)[C@@H](C)C(=O)N[C@@H](Cc1ccccc1)c1nccs1)OC)N(C)C(=O)[C@@H](NC(=O)C(C)(C)NC(=O)OCc1ccc(NC(=O)[C@H](CCCNC(N)=O)NC(=O)[C@@H](NC(=O)[C@H](CCCCN)NC(=O)Cc2ccccc2)C(C)C)cc1)C(C)C [Example 3, N˜2˜-(Phenylacetyl)-L-lysyl-L-valyl-N-{4-[(8S,11S,12R)-11-[(2S)-butan-2-yl]-12-(2-{(2S)-2-[(1R,2R)-1-methoxy-2-methyl-3-oxo-3-{[(1S)-2-phenyl-1-(1,3-thiazol-2-yl)ethyl]amino}propyl]pyrrolidin-1-yl}-2-oxoethyl)-5,5,10-trimethyl-3,6,9-trioxo-8-(propan-2-yl)-2,13-dioxa-4,7,10-triazatetradec-1-yl]phenyl}-N˜5˜-carbamoyl-L-ornithinamide] (PhAc-KV[Cit][PABC][Aib]V[Dil][Dolaproine]-Doe) | 0 | 0 | 1.66 |  |  |  |
| CC[C@H](C)[C@@H]([C@@H](CC(=O)N1CCC[C@H]1[C@H](OC)[C@@H](C)C(=O)N[C@@H](Cc1ccccc1)c1nccs1)OC)N(C)C(=O)[C@@H](NC(=O)C(C)(C)NC(=O)OCc1ccc(NC(=O)[C@H](CCCNC(N)=O)NC(=O)[C@@H](NC(=O)[C@H](CCCCN)NC(=O)c2cnc[nH]2)C(C)C)cc1)C(C)C [Example 4, N˜2˜-(1H-Imidazol-5-ylcarbonyl)-L-lysyl-L-valyl-N-{4-[(8S,11S,12R)-11-[(2S)-butan-2-yl]-12-(2-{(2S)-2-[(1R,2R)-1-methoxy-2-methyl-3-oxo-3-{[(1S)-2-phenyl-1-(1,3-thiazol-2-yl)ethyl]amino}propyl]pyrrolidin-1-yl}-2-oxoethyl)-5,5,10-trimethyl-3,6,9-trioxo-8-(propan-2-yl)-2,13-dioxa-4,7,10-triazatetradec-1-yl]phenyl}-N˜5˜-carbamoyl-L-ornithinamide] (Imidazole4carbonyl-KV[Cit][PABC][Aib]V[Dil][Dolaproine]-Doe) |  |  |  | 1.89 | 100 | 1.84 |
| CC[C@H](C)[C@@H]([C@@H](CC(=O)N1CCC[C@H]1[C@H](OC)[C@@H](C)C(=O)N[C@@H](Cc1ccccc1)c1nccs1)OC)N(C)C(=O)[C@@H](NC(=O)C(C)(C)NC(=O)OCc1ccc(NC(=O)[C@H](CCCNC(N)=O)NC(=O)[C@@H](NC(=O)[C@H](CCCCN)NC(=O)Cc2cnc[nH]2)C(C)C)cc1)C(C)C [Example 5, N˜2˜-(1H-Imidazol-5-ylacetyl)-L-lysyl-L-valyl-N-{4-[(8S,11S,12R)-11-[(2S)-butan-2-yl]-12-(2-{(2S)-2-[(1R,2R)-1-methoxy-2-methyl-3-oxo-3-{[(1S)-2-phenyl-1-(1,3-thiazol-2-yl)ethyl]amino}propyl]pyrrolidin-1-yl}-2-oxoethyl)-5,5,10-trimethyl-3,6,9-trioxo-8-(propan-2-yl)-2,13-dioxa-4,7,10-triazatetradec-1-yl]phenyl}-N˜5˜-carbamoyl-L-ornithinamide] ({Acetyl(2-(4-imidazolyl))}-KV[Cit][PABC][Aib]V[Dil][Dolaproine]-Doe) |  |  |  | 2.0 | 100 | 1.96 |
| CC[C@H](C)[C@@H]([C@@H](CC(=O)N1CCC[C@H]1[C@H](OC)[C@@H](C)C(=O)N[C@@H](Cc1ccccc1)c1nccs1)OC)N(C)C(=O)[C@@H](NC(=O)C(C)(C)NC(=O)OCc1ccc(NC(=O)[C@H](CCCNC(N)=O)NC(=O)[C@@H](NC(=O)[C@H](CCCCN)NC(=O)C(C)C)C(C)C)cc1)C(C)C [Example 7, N˜2˜-(2-Methylpropanoyl)-L-lysyl-L-valyl-N-{4-[(8S,11S,12R)-11-[(2S)-butan-2-yl]-12-(2-{(2S)-2-[(1R,2R)-1-methoxy-2-methyl-3-oxo-3-{[(1S)-2-phenyl-1-(1,3-thiazol-2-yl)ethyl]amino}propyl]pyrrolidin-1-yl}-2-oxoethyl)-5,5,10-trimethyl-3,6,9-trioxo-8-(propan-2-yl)-2,13-dioxa-4,7,10-triazatetradec-1-yl]phenyl}-N˜5˜-carbamoyl-L-ornithinamide] (Isobutyryl-KV[Cit][PABC][Aib]V[Dil][Dolaproine]-Doe) | 0 | 0 | 1.51 |  |  |  |
| CC[C@H](C)[C@@H]([C@@H](CC(=O)N1CCC[C@H]1[C@H](OC)[C@@H](C)C(=O)N[C@@H](Cc1ccccc1)c1nccs1)OC)N(C)C(=O)[C@@H](NC(=O)C(C)(C)NC(=O)OCc1ccc(NC(=O)[C@H](CCCNC(N)=O)NC(=O)[C@@H](NC(=O)[C@H](CCCCN)NC(=O)CO)C(C)C)cc1)C(C)C [Example 25, N˜2˜-(hydroxyacetyl)-L-lysylvalyl-N-{4-[(8S,11S,12R)-11-[(2S)-butan-2-yl]-12-(2-{(2S)-2-[(1R,2R)-1-methoxy-2-methyl-3-oxo-3-{[(1S)-2-phenyl-1-(1,3-thiazol-2-yl)ethyl]amino}propyl]pyrrolidin-1-yl}-2-oxoethyl)-5,5,10-trimethyl-3,6,9-trioxo-8-(propan-2-yl)-2,13-dioxa-4,7,10-triazatetradec-1-yl]phenyl}-N˜5˜-carbamoyl-L-ornithinamide] (Glycolyl-KV[Cit][PABC][Aib]V[Dil][Dolaproine]-Doe) |  | 84 | 1.91 |  |  |  |
| CC[C@H](C)[C@@H]([C@@H](CC(=O)N1CCC[C@H]1[C@H](OC)[C@@H](C)C(=O)N[C@@H](Cc1ccccc1)c1nccs1)OC)N(C)C(=O)[C@@H](NC(=O)C(C)(C)NC(=O)OCc1ccc(NC(=O)[C@H](CCCNC(N)=O)NC(=O)[C@@H](NC(=O)[C@H](CCCCN)NC(=O)NC)C(C)C)cc1)C(C)C [Example 26, N˜2˜-(methylcarbamoyl)-L-lysylvalyl-N-{4-[(8S,11S,12R)-11-[(2S)-butan-2-yl]-12-(2-{(2S)-2-[(1R,2R)-1-methoxy-2-methyl-3-oxo-3-{[(1S)-2-phenyl-1-(1,3-thiazol-2-yl)ethyl]amino}propyl]pyrrolidin-1-yl}-2-oxoethyl)-5,5,10-trimethyl-3,6,9-trioxo-8-(propan-2-yl)-2,13-dioxa-4,7,10-triazatetradec-1-yl]phenyl}-N˜5˜-carbamoyl-L-ornithinamide] ({NHMe-CO}-KV[Cit][PABC][Aib]V[Dil][Dolaproine]-Doe) | 1.16 | 60 | 1.92 |  |  |  |
| CC[C@H](C)[C@@H]([C@@H](CC(=O)N1CCC[C@H]1[C@H](OC)[C@@H](C)C(=O)N[C@@H](Cc1ccccc1)c1nccs1)OC)N(C)C(=O)[C@@H](NC(=O)C(C)(C)NC(=O)OCc1ccc(NC(=O)[C@H](CCCNC(N)=O)NC(=O)[C@@H](NC(=O)[C@H](CCCCN)NC(=O)CNC)C(C)C)cc1)C(C)C [Example 27, N-methylglycyl-L-lysylvalyl-N-{4-[(8S,11S,12R)-11-[(2S)-butan-2-yl]-12-(2-{(2S)-2-[(1R,2R)-1-methoxy-2-methyl-3-oxo-3-{[(1S)-2-phenyl-1-(1,3-thiazol-2-yl)ethyl]amino}propyl]pyrrolidin-1-yl}-2-oxoethyl)-5,5,10-trimethyl-3,6,9-trioxo-8-(propan-2-yl)-2,13-dioxa-4,7,10-triazatetradec-1-yl]phenyl}-N˜5˜-carbamoyl-L-ornithinamide] (H-[Sar]KV[Cit][PABC][Aib]V[Dil][Dolaproine]-Doe) | 0.98 | 57 | 1.72 |  |  |  |
| CC[C@H](C)[C@@H]([C@@H](CC(=O)N1CCC[C@H]1[C@H](OC)[C@@H](C)C(=O)N[C@@H](Cc1ccccc1)c1nccs1)OC)N(C)C(=O)[C@@H](NC(=O)C(C)(C)NC(=O)OCc1ccc(NC(=O)[C@H](CCCNC(N)=O)NC(=O)[C@@H](NC(=O)[C@H](CCCCN)NC(=O)CN(C)C)C(C)C)cc1)C(C)C [Example 28, N,N-dimethylglycyl-L-lysylvalyl-N-{4-[(8S,11S,12R)-11-[(2S)-butan-2-yl]-12-(2-{(2S)-2-[(1R,2R)-1-methoxy-2-methyl-3-oxo-3-{[(1S)-2-phenyl-1-(1,3-thiazol-2-yl)ethyl]amino}propyl]pyrrolidin-1-yl}-2-oxoethyl)-5,5,10-trimethyl-3,6,9-trioxo-8-(propan-2-yl)-2,13-dioxa-4,7,10-triazatetradec-1-yl]phenyl}-N˜5˜-carbamoyl-L-ornithinamide] (Me2Gly-KV[Cit][PABC][Aib]V[Dil][Dolaproine]-Doe) | 0.07 | 4 | 1.83 |  |  |  |
